# Measurements taken from patent US20060211087A1 (SALK INSTITUTE FOR BIOLOGICAL STUDIES, published 2006).
# B1: BMP7 (ligand, UniProt P18075 293-431, looked up)
# chain: STGSKQRSQNRSKTPKNQEALRMANVAENSSSDQRQACKKHELYVSFRDLGWQDWIIAPEGYAAYYCEGECAFPLNSYMNATNHAIVQTLVHFINPETVPKPCCAPTQLNAISVLYFDDSSNVILKKYRNMVVRACGCH
# modifications: 125I-iodinated by a modified Chloramine-T procedure (tracer); unlabeled form used as competitor
# notes: also called unlabeled BMP7
# Molecular target: T1, CRFR2β (CRF receptor 2 beta) (human, UniProt Q60748 35-411 (mouse entry))
# T1 construct: also called CRFR2b; CRFRIIβ
# T1 sequence (Q60748 other isoform, or with tags, fused parts or gaps): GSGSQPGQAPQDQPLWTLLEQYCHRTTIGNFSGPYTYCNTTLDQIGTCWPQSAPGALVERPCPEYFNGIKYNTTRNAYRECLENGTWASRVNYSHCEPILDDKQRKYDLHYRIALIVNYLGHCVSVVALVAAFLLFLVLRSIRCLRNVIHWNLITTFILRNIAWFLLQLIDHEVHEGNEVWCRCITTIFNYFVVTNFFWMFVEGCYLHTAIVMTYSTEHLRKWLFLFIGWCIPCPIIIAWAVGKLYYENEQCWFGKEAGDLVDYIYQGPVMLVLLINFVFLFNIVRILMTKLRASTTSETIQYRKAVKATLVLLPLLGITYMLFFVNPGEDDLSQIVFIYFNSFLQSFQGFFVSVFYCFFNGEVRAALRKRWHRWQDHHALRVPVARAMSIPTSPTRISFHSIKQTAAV
# Assay: 125I-BMP7 tracer (5x10^5 cpm) with or without unlabeled BMP7, Ni-NTA pull-down, gamma counting; CRFR2β as control receptor
# Method: In a particular example, BMPRII, ALK3 and CRFR2β were incubated with 5×10⁵ cpm ¹²⁵I-BMP7 tracer in the presence or absence of 40 nM unlabeled BMP7 as competitor. BMPRII and ALK3 are type II and type I receptors of BMP7, respectively. CRFR2β is a G-protein coupled receptor with no known affinity for BMP7 and was included as a control. Samples were prepared in triplicate in 1.7 ml eppendorf tubes in a final volume of 1 ml binding buffer (150 mM NaCl, 50 mM Tris (pH 7.5), 0.1% BSA). Binding was performed for […] at room temperature. After an initial 60 minutes of binding, 20 μl of 50% Ni—NTA resin (Qiagen) was added to each sample and allowed to bind for the balance of the […] incubation period. Complexes were precipitated by centrifugation and washed three times in 1 ml binding buffer. After the final wash, bound ¹²⁵I-BMP7 tracer was quantified in a gamma counter. BMP7 was iodinated using a modified Cloramine-T procedure (see, e.g., Lawler et al., J. Neurosci. Meth., 49:141-53, 1993).
binder,measurement,value
B1,binding result,no binding (tested: 40 nM unlabeled BMP7)
